Tests used:
[1] = biological target: Glycine max (soybean) heme oxygenase-1 (GmHO-1) (Glycine max (soybean)); assay: ITC; 800 uM Fd in the syringe into 40 uM holo-GmHO-1 (heme bound) in the cell; 25 °C; 20 mM Tris-HCl pH 7.0, 20 mM NaCl; one set of sites model; single measurement
[2] = biological target: Glycine max (soybean) heme oxygenase-1 (GmHO-1) (Glycine max (soybean)); assay: ITC; 800 uM Fd in the syringe into 40 uM apo-GmHO-1 (no heme) in the cell; 25 °C; 20 mM Tris-HCl pH 7.0, 20 mM NaCl; one set of sites model; single measurement

Question: For “soybean ferredoxin (Fd) (natural protein)”, which Kd [1] is on record?
Answer: 5.3 µM

Question: What about the dH [1] of the same substance?
Answer: 2.6 kcal/mol

Question: What about the stoichiometry N [1] of the same substance?
Answer: 1

Question: What about the Kd [2] of the same substance?
Answer: 14.7 µM

Question: And the dH [2]?
Answer: 3.3 kcal/mol

Question: What about the stoichiometry N [2] of the same substance?
Answer: 1

From publication PMC7948506
